{
  "source": "IntAct's records for PubMed 31515488",
  "parents": {"B1": {"name": "Transcription factor 12 (Homo sapiens), Q99081-3 (parent)", "chain": "MNPQQQRMAAIGTDKELSDLLDFSAMFSPPVNSGKTRPTTLGSSQFSGSGIDERGGTTSWGTSGQPSPSYDSSRGFTDSPHYSDHLNDSRLGAHEGLSPTPFMNSNLMGKTSERGSFSLYSRDTGLPGCQSSLLRQDLGLGSPAQLSSSGKPGTAYYSFSATSSRRRPLHDSAALDPLQAKKVRKVPPGLPSSVYAPSPNSDDFNRESPSYPSPKPPTSMFASTFFMQDGTHNSSDLWSSSNGMSQPGFGGILGTSTSHMSQSSSYGNLHSHDRLSYPPHSVSPTDINTSLPPMSSFHRGSTSSSPYVAASHTPPINGSDSILGTRGNAAGSSQTGDALGKALASIYSPDHTSSSFPSNPSTPVGSPSPLTGTSQWPRPGGQAPSSPSYENSLHSLKNRVEQQLHEHLQDAMSFLKDVCEQSRMEDRLDRLDDAIHVLRNHAVGPSTSLPAGHSDIHSLLGPSHNAPIGSLNSNYGGSSLVASSRSASMVGTHREDSVSLNGNHSVLSSTVTTSSTDLNHKTQENYRGGLQSQSGTVVTTEIKTENKEKDENLHEPPSSDDMKSDDESSQKDIKVSSRGRTSSTNEDEDLNPEQKIEREKERRMANNARERLRVRDINEAFKELGRMCQLHLKSEKPQTKLLILHQAVAVILSLEQQVRERNLNPKAACLKRREEEKVSAVSAEPPTTLPGTHPGLSETTNPMGHM", "partner": "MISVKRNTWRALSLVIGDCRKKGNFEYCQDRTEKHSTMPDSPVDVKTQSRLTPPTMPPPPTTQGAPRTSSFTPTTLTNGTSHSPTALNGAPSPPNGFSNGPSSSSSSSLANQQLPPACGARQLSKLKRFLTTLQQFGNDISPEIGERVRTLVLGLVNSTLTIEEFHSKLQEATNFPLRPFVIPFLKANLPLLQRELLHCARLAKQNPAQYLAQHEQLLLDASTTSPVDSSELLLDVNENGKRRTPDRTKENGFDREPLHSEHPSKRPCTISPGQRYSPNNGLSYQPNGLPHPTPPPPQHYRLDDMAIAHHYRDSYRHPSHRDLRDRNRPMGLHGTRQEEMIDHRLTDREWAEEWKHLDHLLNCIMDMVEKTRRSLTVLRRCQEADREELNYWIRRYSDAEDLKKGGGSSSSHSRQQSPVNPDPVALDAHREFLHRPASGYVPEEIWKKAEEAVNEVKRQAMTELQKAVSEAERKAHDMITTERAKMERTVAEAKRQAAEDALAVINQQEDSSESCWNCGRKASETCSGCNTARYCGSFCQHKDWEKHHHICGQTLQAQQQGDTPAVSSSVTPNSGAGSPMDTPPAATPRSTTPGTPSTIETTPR"}, "B2": {"name": "Arginine/serine-rich protein 1 (Homo sapiens), Q9BUV0 (parent)", "chain": "MSNYVNDMWPGSPQEKDSPSTSRSGGSSRLSSRSRSRSFSRSSRSHSRVSSRFSSRSRRSKSRSRSRRRHQRKYRRYSRSYSRSRSRSRSRRYRERRYGFTRRYYRSPSRYRSRSRSRSRSRGRSYCGRAYAIARGQRYYGFGRTVYPEEHSRWRDRSRTRSRSRTPFRLSEKDRMELLEIAKTNAAKALGTTNIDLPASLRTVPSAKETSRGIGVSSNGAKPELSEKVTEDGTRNPNEKPTQQRSIAFSSNNSVAKPIQKSAKAATEEASSRSPKIDQKKSPYGLWIPI"}, "B3": {"name": "Proton-coupled zinc antiporter SLC30A2 (Homo sapiens), Q9BRI3 (parent)", "chain": "MEAKEKQHLLDARPAIRSYTGSLWQEGAGWIPLPRPGLDLQAIELAAQSNHHCHAQKGPDSHCDPKKGKAQRQLYVASAICLLFMIGEVVGGYLAHSLAVMTDAAHLLTDFASMLISLFSLWMSSRPATKTMNFGWQRAEILGALVSVLSIWVVTGVLVYLAVERLISGDYEIDGGTMLITSGCAVAVNIIMGLTLHQSGHGHSHGTTNQQEENPSVRAAFIHVIGDFMQSMGVLVAAYILYFKPEYKYVDPICTFVFSILVLGTTLTILRDVILVLMEGTPKGVDFTAVRDLLLSVEGVEALHSLHIWALTVAQPVLSVHIAIAQNTDAQAVLKTASSRLQGKFHFHTVTIQIEDYSEDMKDCQACQGPSD"}, "B4": {"name": "\"N-acyl-aromatic-L-amino acid amidohydrolase (carboxylate-forming)\" (Homo sapiens), Q96HD9 (parent)", "chain": "MCSLPVPREPLRRVAVTGGTHGNEMSGVYLARHWLHAPAELQRASFSAVPVLANPAATSGCRRYVDHDLNRTFTSSFLNSRPTPDDPYEVTRARELNQLLGPKASGQAFDFVLDLHNTTANMGTCLIAKSSHEVFAMHLCRHLQLQYPELSCQVFLYQRSGEESYNLDSVAKNGLGLELGPQPQGVLRADIFSRMRTLVATVLDFIELFNQGTAFPAFEMEAYRPVGVVDFPRTEAGHLAGTVHPQLQDRDFQPLQPGAPIFQMFSGEDLLYEGESTVYPVFINEAAYYEKGVAFVQTEKFTFTVPAMPALTPAPSPAS"}, "B5": {"name": "U3 small nucleolar RNA-associated protein 14 homolog C (Homo sapiens), Q5TAP6 (parent)", "chain": "MNVNQVAENLALSHQEELVDLPKNYPLSENEDEGDSDGERKHQKLLEAIISLDGKNRRKLAERSEASLKVSEFSVSSEGSGEKLGLADLLEPVKTSSSLATVKKQLNRVKSKKVVELPLNKEKIEQIHREVAFSKTSQVLSKWDPIILKNQQAEQLVFPLGKEQPAIAPIEHALSGWKARTPLEQEIFNLLHKNKQPVTDPLLTPMEKASLQAMSLEEAKMHRAELQRARALQSYYEAKARKEKKIKSKKYHKVVKKGKAKKALKEFEQLQKVNPTVALEEMEKIENARMMERMSLKHQNSGKWAKSKAIMAKYDLEARQAMQEQLAKNKELTQKLQVASESEEEEGGTEVEELLVPHVANEVQMNVDGPNPWMFRSCTSDTKEAATQEDPEQVPELAAHEVSASEAEERPVAEEEILLREFEERQSLRKRSELNQDAEPASSQETKDSSSQEVLSELRALSQKLKEKHQSRKQKASSEGTVPQVQREEPAPEEAEPLLLQRSERVQTLEELEELGKEDCFQNKELPRPVLEGQQSERTPNNRPDAPKEKKEKEQLINLQNFLTTQSPSVRSLAVPTIIEELEDEEERDQRQMIKEAFAGDDVIRDFLKEKREAVEASKPKDVDLTLPGWGEWGGVGLKPSAKKRRQFLIKAPEGPPRKDKNLPNVIISEKRNIHAAAHQVQVLPYPFTHHRQFERTIQTPIGSTWNTQRAFQKLTTPKVVTKPGHIIKPIKAEDVGYQSSSRSDLPVIQRNPKRITTRHNKEEKL", "partner": "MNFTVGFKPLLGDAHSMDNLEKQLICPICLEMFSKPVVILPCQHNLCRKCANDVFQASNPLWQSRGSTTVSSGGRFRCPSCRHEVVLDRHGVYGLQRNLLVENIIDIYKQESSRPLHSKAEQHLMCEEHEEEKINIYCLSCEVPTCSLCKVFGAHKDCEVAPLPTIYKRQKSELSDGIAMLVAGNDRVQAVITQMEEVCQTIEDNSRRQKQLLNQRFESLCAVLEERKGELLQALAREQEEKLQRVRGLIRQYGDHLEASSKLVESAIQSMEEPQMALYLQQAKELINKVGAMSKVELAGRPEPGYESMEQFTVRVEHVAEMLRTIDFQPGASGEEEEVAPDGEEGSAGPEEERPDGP"}},
  "data": [
    {"variants_of": "B1", "conditions": "with mtg8_human RUNX1T1, Q06455", "values": [
      {"variant": "A482V", "effect of a mutation on the interaction": "with no effect"},
      {"variant": "Y120C", "effect of a mutation on the interaction": "with no effect"},
      {"variant": "R74G", "effect of a mutation on the interaction": "with no effect"},
      {"variant": "S446F", "effect of a mutation on the interaction": "with no effect"},
      {"variant": "N606H", "effect of a mutation on the interaction": "with no effect"},
      {"variant": "A155T", "effect of a mutation on the interaction": "with no effect"}
    ]},
    {"variants_of": "B2", "conditions": "with clk2_human CLK2, P49760", "values": [
      {"variant": "V216A", "effect of a mutation on the interaction": "with no effect"},
      {"variant": "S20L", "effect of a mutation on the interaction": "with no effect"},
      {"variant": "Y147H", "effect of a mutation on the interaction": "with no effect"}
    ]},
    {"variants_of": "B2", "conditions": "with clk3_human CLK3, P49761", "values": [
      {"variant": "V216A", "effect of a mutation on the interaction": "with no effect"},
      {"variant": "S20L", "effect of a mutation on the interaction": "with no effect"},
      {"variant": "Y147H", "effect of a mutation on the interaction": "with no effect"}
    ]},
    {"variants_of": "B3", "conditions": "with tnr12_human TNFRSF12A", "values": [
      {"variant": "T181M", "effect of a mutation on the interaction": "with no effect"}
    ]},
    {"variants_of": "B3", "conditions": "with ada33_human ADAM33, Q9BZ11", "values": [
      {"variant": "T181M", "effect of a mutation on the interaction": "with no effect"}
    ]},
    {"variants_of": "B3", "conditions": "with ccl4_human CCL4, P13236", "values": [
      {"variant": "T181M", "effect of a mutation on the interaction": "with no effect"}
    ]},
    {"variants_of": "B4", "conditions": "with gors2_human GORASP2, Q9H8Y8", "values": [
      {"variant": "R8Q", "effect of a mutation on the interaction": "with no effect"}
    ]},
    {"variants_of": "B5", "conditions": "with tri54_human TRIM54, Q9BYV2", "values": [
      {"variant": "K247E", "effect of a mutation on the interaction": "with no effect"},
      {"variant": "R672H", "effect of a mutation on the interaction": "with no effect"},
      {"variant": "A652T", "effect of a mutation on the interaction": "with no effect"},
      {"variant": "I170V", "effect of a mutation on the interaction": "with no effect"},
      {"variant": "V570M", "effect of a mutation on the interaction": "with no effect"},
      {"variant": "V109D", "effect of a mutation on the interaction": "with no effect"}
    ]}
  ]
}
